T1: Enterococcus hirae V-ATPase a-subunit (Enterococcus hirae, UniProt P43439 1-664)
T1 construct: a-subunit (stator, membrane-integrated region and extrinsic arm) of the V-type Na+-ATPase of Enterococcus hirae; Modelled by homology (I-TASSER, template PDB 6C6L of another species); also called stator a-subunit; source: E. coli, recombinant; purified as part of the whole EhV-ATPase complex (Ni-NTA, Superdex 200, 0.05% DDM)
T1 sequence (looked up): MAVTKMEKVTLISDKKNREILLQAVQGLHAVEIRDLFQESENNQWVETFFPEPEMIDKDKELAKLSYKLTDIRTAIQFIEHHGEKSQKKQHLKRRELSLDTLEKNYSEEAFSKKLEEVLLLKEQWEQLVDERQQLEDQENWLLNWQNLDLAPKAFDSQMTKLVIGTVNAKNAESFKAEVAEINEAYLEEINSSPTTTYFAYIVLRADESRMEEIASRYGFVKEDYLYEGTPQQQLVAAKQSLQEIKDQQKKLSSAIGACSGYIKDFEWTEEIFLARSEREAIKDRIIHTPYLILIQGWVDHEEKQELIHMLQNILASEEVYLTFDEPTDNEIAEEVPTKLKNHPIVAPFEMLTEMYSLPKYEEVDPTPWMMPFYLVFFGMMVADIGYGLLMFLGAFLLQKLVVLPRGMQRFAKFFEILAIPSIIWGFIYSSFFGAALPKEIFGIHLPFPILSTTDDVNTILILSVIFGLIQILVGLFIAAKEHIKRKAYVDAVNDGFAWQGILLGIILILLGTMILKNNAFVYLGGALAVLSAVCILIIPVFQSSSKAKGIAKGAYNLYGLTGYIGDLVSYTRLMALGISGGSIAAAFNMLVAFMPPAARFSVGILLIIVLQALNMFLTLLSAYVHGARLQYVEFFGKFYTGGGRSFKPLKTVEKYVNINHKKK

B1: Enterococcus hirae V-ATPase d-subunit (natural protein, UniProt P43456 1-328, looked up)
chain: MEYHELNPLIRGRELELISKDTFEQMIQTDSIDSLGEILQSTIYQPYIYDGFDKDFEANLSQERSKLFQWLKESAPEPEIVWIYTMRYTFHNLKVLTKAEITGQNLDHLYIHDGFYSLEVLKDAIHTQVSVELPDSLMDYIREVHEYCEESTILQGIDVIYDRCFLTEQRRLGEQLGYPELLEEIIAFIDLTNITTTARGILQHRSAGFMTTVISSSGSIPKDTLLSFVRGEMASFTQFLLTTDYSELLKQVIHEEQIDLVSLEQLKDDYLSSFYQVAQTQAFGPLPLLAFLNAKEVESKNLRLLIIGKRNHFSLEQLKERMRQVYDL
notes: d-subunit (terminus of the rotor shaft) of the V-type Na+-ATPase of Enterococcus hirae; Modelled by homology (I-TASSER, template PDB 1R5Z of another species) and fitted as a rigid body; also called rotor shaft terminus; source: E. coli, recombinant; purified as part of the whole EhV-ATPase complex (Ni-NTA, Superdex 200, 0.05% DDM)

How the values were obtained:
[1] = molecular target: B1; assay: cryo-EM structure; detergent-solubilised (0.05% DDM) whole EhV-ATPase, 0.13 mM, with 7 mM ATP, 100 mM Na+ and Mg2+, vitrified during turnover; six states (1, 1', 2, 2', 3, 3') sorted from one sample, whole-complex maps 4.3-7.7 A, V1-focussed maps 3.8-7.7 A; crystal structures and homology models fitted into the maps; conditions: both partners purified
[2] = molecular target: T1, Enterococcus hirae V-ATPase a-subunit; assay: as above; conditions: both partners purified

Binder	binding result [1]	binding result [2]
Enterococcus hirae V-ATPase D-subunit (natural protein, D-subunit (rotor shaft) of the V-type Na+-ATPase of Enterococcus hirae; also called rotor D-subunit; source: E. coli, recombinant; purified as part of the whole EhV-ATPase complex (Ni-NTA, Superdex 200, 0.05% DDM)) MRLNVNPTRMELTRLKKQLTTATRGHKLLKDKQDELMRQFILLIRKNNELRQAIEKETQTAMKDFVLAKSTVEEAFIDELLALPAENVSISVVEKNIMSVKVPLMNFQYDETLNETPLEYGYLHSNAELDRSIDGFTQLLPKLLKLAEVEKTCQLMAEEIEKTRRRVNALEYMTIPQLEETIYYIKMKLEENERAEVTRLIKVKNMGTEE	binds	
B1		binds
Enterococcus hirae V-ATPase EG peripheral stalk (complex, E-subunit of the V-type Na+-ATPase of Enterococcus hirae; G-subunit of the V-type Na+-ATPase of Enterococcus hirae; Two such stalks stand in the complex; E and G were modelled by homology (templates PDB 4DT0 and 5GAS of other species); also called EG stalk complex; EG stalks; source: E. coli, recombinant; purified as part of the whole EhV-ATPase complex (Ni-NTA, Superdex 200, 0.05% DDM)) chain 1: MPIDKIITQINETAQLERASFEEMKRKEIDQKFEVKKWQIEADFQKEKASKLEEIERSYRQLRNKQKMQVKQEILNAKQEVLQRLFTEATLQLENEPKEEQLALMKQMIQTLPINGTARLIPGEKSADILTPAVIAEWNEELPFELIREDFTEKAQAGLIIDDAGIQYNFLFSHLIKEIQETMSAEIAKELFD chain 2: MARILTRIKEAEENNQKKEEQVKAELAQYEQLKNNELIDLNKEFQERLTKLMKEKEKNEEEVTEDEQHKLELILEQFRQKVLEIEKTYLEKEEEEIAKKKNLTNEIIERMKQNNGCH		binds

From publication PMC10382590, “Six states of Enterococcus hirae V-type ATPase reveals non-uniform rotor rotation during turnover” (Communications Biology, 2023)
